Results taken from PMC11760809.

Tests used:
[1] = molecular target: ACKR3-Rluc3 (human) (UniProt P25106)
[2] = molecular target: SNAP-ACKR3 (human) (UniProt P25106)
[3] = molecular target: CXCR4-Rluc3 (human) (UniProt P61073)
[4] = molecular target: ACKR3-Rluc3 (human) (UniProt P25106); remark: listed apart in the source
[5] = molecular target: SNAP-ACKR3 (human) (UniProt P25106); remark: listed apart in the source

Chain of UniProt P61073 (P61073 whole entry): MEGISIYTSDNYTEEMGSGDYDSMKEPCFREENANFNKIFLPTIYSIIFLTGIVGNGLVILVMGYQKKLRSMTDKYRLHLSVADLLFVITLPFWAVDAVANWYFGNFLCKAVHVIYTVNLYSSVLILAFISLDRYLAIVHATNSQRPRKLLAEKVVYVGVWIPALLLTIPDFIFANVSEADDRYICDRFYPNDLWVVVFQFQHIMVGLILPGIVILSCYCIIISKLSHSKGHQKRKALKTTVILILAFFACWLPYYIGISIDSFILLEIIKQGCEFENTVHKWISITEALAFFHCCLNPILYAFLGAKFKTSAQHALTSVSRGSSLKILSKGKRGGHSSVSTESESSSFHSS

B1: 3xHA-RAMP3 (natural protein)
chain: RAGGCNETGMLERLPLCGKAFADMMGKVDVWKWCNLSEFIVYYESFTNCTEMEANVVGCYWPNPLAQGFITGIHRQFFSNCTVDRVHLEDPPDEVLIPLIVIPVVLTVAMAGLVVWRSKRTDTLL
- decrease of the efficacy of CXCL11-induced β-arrestin recruitment to ACKR3 with HA-RAMP3 (BRET) [1]: 47%
- decrease of the efficacy of TC14012-induced β-arrestin recruitment to ACKR3 with HA-RAMP3 (BRET) [1]: 39%
- decrease of the efficacy of VUF11207-induced β-arrestin recruitment to ACKR3 with HA-RAMP3 (BRET) [1]: 30%
- ACKR3 remaining at the surface after CXCL12-induced internalization when HA-RAMP3 was present (∼53% without it; SNAP surface labelling) [2]: 65%
- reduction of the efficacy (Emax) of CXCL12-induced β-arrestin recruitment to CXCR4 by RAMP3 (BRET) [3]: 18.5%
- decrease of the CXCL12-induced Emax of β-arrestin recruitment to ACKR3 on co-expression with RAMP3 (BRET) [4]: 40%
- attenuation of the purely ligand-induced (CXCL12) internalization of ACKR3 by RAMP3 (DERET) [5]: 50%
- reduction of total ACKR3 internalization in response to CXCL12 (100 nM) on co-expression of HA-RAMP3, compared to ACKR3 alone (DERET, AUC 90 min) [5]: 25%
